Target: the molecule itself
Assay: ThT fluorescence + AFM

Row | Protein | binding result
1 | GAVVYSGSLYFQ [peptide P1 (G326AVVYSGSLYFQ) of myoc-OLF] | binds
2 | VANAFIICGTLYTVSSY [peptide P3 (V426ANAFIICGTLYTVSSY) of myoc-OLF] | binds
